Earlier results on one molecule are cited in US8765467B2, “Multicellular compositions of pluripotent human embryonic stem cells and cancer cells” (Technion Research and Development Foundation Ltd., priority 2003, dated 2014).

The subject of one data set is tumors. Conditions: tumors grown in immunocompromised mice; literature (Folkman 2002).
Data set [1] relates to human B-lineage acute lymphoblastic leukemia (B-ALL). Conditions: human B-ALL engrafted within marrow of immunodeficient mice; literature (Eisterer et al 2002).

B1: Endostatin (protein, UniProt P39060 1572-1754, looked up)
Endostatin: HSHRDFQPVLHLVALNSPLSGGMRGIRGADFQCFQQARAVGLAGTFRAFLSSRLQDLYSIVRRADRAAVPIVNLKDELLFPSWEALFSGSEGPLKPGARIFSFDGKDVLRHPTWPQKSVWHGSDPNGRRLTESYCETWRTEAPSATGQASSLLGGRLLGQSAASCHHAYIVLCIENSFMTASK
modifications: Endostatin
notes: antiangiogenic agent cited from the literature
For the molecule B1, the anti-angiogenic activity entry in the data set with tumors was “potent anti-angiogenic agent”. Moreover, in data set [1], the inhibitory effect entry was “did not exhibit any inhibitory effect”.
